Measured values: patent publication US20150197559A1 (University of California, published 2015)

How the values were obtained:
BoNT/B1 [1] = target: T1, BoNT/B1 (Clostridium botulinum, UniProt P10844 2-1291); experiment: flow cytometry, yeast-displayed scFv, soluble toxin
T1 sequence: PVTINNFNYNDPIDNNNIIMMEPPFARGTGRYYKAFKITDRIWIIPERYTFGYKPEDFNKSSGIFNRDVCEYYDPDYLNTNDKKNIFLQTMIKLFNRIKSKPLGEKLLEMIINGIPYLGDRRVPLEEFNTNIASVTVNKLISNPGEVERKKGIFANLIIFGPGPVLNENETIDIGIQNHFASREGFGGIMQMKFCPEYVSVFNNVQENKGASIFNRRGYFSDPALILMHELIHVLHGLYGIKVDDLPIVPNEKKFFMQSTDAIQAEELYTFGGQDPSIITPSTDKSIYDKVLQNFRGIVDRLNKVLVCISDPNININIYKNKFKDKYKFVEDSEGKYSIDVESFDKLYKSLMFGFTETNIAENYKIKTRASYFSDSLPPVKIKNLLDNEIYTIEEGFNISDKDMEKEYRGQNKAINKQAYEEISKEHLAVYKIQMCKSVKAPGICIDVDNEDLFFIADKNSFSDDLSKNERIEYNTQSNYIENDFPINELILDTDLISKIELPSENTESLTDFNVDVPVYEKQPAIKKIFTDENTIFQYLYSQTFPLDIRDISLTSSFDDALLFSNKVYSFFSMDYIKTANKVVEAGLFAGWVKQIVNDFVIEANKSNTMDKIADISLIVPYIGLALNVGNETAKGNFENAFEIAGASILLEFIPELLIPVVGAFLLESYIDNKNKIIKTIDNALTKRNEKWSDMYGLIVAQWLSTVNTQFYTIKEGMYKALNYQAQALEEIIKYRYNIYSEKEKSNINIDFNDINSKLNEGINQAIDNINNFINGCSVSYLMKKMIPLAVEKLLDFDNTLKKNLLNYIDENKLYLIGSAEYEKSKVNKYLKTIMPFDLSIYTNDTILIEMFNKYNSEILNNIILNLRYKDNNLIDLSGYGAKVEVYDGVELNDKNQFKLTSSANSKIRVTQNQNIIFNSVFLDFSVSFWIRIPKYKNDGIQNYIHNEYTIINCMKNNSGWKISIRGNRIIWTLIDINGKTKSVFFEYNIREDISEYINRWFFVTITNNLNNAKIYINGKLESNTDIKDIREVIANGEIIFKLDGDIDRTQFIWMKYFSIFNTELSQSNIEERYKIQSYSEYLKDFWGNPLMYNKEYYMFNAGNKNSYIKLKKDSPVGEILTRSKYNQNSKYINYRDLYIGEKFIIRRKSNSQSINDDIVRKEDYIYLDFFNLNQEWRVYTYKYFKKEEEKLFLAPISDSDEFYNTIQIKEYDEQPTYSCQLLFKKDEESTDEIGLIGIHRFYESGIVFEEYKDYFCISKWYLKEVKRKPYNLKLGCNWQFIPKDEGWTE

BoNT/B1 [2] = target: T1, BoNT/B1; experiment: as above; remark: listed apart in the source
BoNT/B1 [3] = target: T1, BoNT/B1; experiment: as above; remark: listed apart in the source
BoNT/B1 [4] = target: T1, BoNT/B1; experiment: KinExA flow fluorimetry, IgG in solution
BoNT/B1 [5] = target: T1, BoNT/B1; experiment: yeast-displayed Fab against parental B6 scFv, flow cytometry
BoNT/B1 [6] = target: T1, BoNT/B1; experiment: flow cytometry, yeast-displayed Fab, soluble toxin
BoNT/B1 [7] = target: T1, BoNT/B1

B1: B11E8 scFv (scFv)
scFv: EVQLVQSGGGVVQPGRSLRLSCAASGFIFRTYGMHWVRQAPGKGLEWVAFVSSDGNNKFYSDSVKGRFTISRDNAKNTLYLQMNSLETEDTAMYYCAKDRYPIDCSGGSCFSYGMDVWGQGTTVTVSSGGGGSGGGGSGGGGSEIVLTQSPATLSVSPGERATLSCRASQSVSKFLAWYQQKRGQAPRLLIYGASTRATGIPARFSGSGSGTEFALTISSLQSEDFADYYCQQYDNWPITFGQGTRLEIK
In the case of B1, the Kd (BoNT/B1 [1]) is reported as 0.193 nM.

B2: 4B6 scFv (scFv)
scFv: QVQLVQSGAEVKKPGESLVISCKASGDKDTFTSFWIAWVRQMPGKGLEWMGIIYAGDSDTRYSPSFQGHVNISVDRSTNTAYLQWSSLKASDTAMYYCARHDSRYKYFYFGMDVWGQGTTVTVSSGGGGSGGGGSGGGGSDVVMTQSPSSLSASVGDRITITCQAGQDISNFLNWYQQKPGKAPKLLIRDASNLETGVPSRFSGGGSGTHFTFTISSLHPEDIATYFCQQYDNLPYTFGQGTKLEIK
In the case of B2, the Kd (BoNT/B1 [2]) is reported as 2.7 nM.

B3: 1B18 scFv (scFv, V domains shown)
VH: EVQLVQSGGGLVQPGGSRRLSCAASGFYFNAYWMTWVRQAPGKGLEWVANINLDGTEIYYLDSVKGRFTVSRDNVKNSVFLQMSSLRVEDTAVYFCARLEWGGRNGWVSPWGQGTLVTVSS
VL: DVVMTQSPSSVSASVGDRVTITCRASQSISSYLNWYQQRPGKAPKLLIFAASSLQSAVPSRFSGSGSGTDFTLTISSLQPEDFATYYCQQSYSTPPTFGQGTKVEIKR
Work on B3 yielded a Kd (BoNT/B1 [3]) of 7.3 nM and a Kd (BoNT/B1 [2]) of 7.3 nM.

B4: 1B18 IgG (antibody, V domains shown)
VH: B3 VH
VL: B3 VL
With B4 the Kd (BoNT/B1 [4]) was 0.816 nM.

B5: 1B10 scFv (scFv)
scFv: QVQLVESGGGVVQPGRSLRLSCAASGFTFSHYGMHWVRQSPGKGLEWVAVIWYDGRNPYYAASVKGRFTISRDNDKNTLYLQMNSLRAEDTAVYYCVKDLTRFHDTTFGVFEMWGPGTTVTVSSGGGGSGGGGSGGGGSEIVLTQSPSSLSASVGDRITITCRASQSISSWLAWYQQKPGKAPMVLIYKASSLENGVPSRFSGSGSGTEFTLTISSLQPDDFATYYCQQYSTYSRTFGQGTKVEIK
B5 showed a Kd (BoNT/B1 [2]) of 11.2 nM.

B6: 4B7 scFv (scFv)
scFv: QVQLQQSGPGLVKPSQTLSLTCSVSGGSINSDGSYWSWVRQHPGKGLEWIGYIYYSGTTYFNPSLKSRLTMSVDTSKNQFSLKMTSVTAADTAVYYCARMSGSRSYSQYYFDSWGQGTLVTVSSGGGGSGGGGSGGGGSDIQMTQSPSSLSASVGDRVTITCRASQSISSYLNWYQQKPGTAPKLLISDASTLQSGVPSRFSGSGSGTEFTLTISNLQPEDFATYYCQQFNSYVWTFGQGTKLEIK
B6 showed a Kd (BoNT/B1 [2]) of 29.4 nM.

B7: 2B24 scFv (scFv)
scFv: QVQLVESGGGVVQPGRSLRLSCAASGLTFSVYGMHWVRQAPGKGLEWVAVISHTGSEEYYADSVKGRFSISRDNSNNTLFLQMNSLRPEDTAVYYCVKDGPMAAIPFYYFDFWGQGTLVTVSSGGGGSGGGGSGGGGSQSVVTQPPSVSAAPGQKVTISCSGSSSNIGNNYVSWYQQLPGTAPKLLIYDNNKRPSGIPDRFSGSKSGTSATLGITGLQTGDEADYYCGTWDSSLSAGVFGGGTKLTVL
With B7 the Kd (BoNT/B1 [2]) was 0.79 nM.

B8: 2B23 IgG (antibody, V domains shown)
VH: EVQLLESGGGLVQPGGSLRLSCAASGFTFSNYPMSWVRQAPGKGLAWVSSLTASGDNTFYADSVKGRFTISRDNSNNTLYLQMHSLRAEDTAVYYCAKALVGRYDISTGYYRPVMDSWGQGTLVTVSS
VL: DIQMTQSPPSLSASVGDRVTITCRTSQGFTSALAWYQQKPGEPPKLLIYDASKLESGVPSRFSGSGSGTNFALTISSLQPEDFATYFCQQSNSYPLTFGGGTKVEIKR
For B8, the Kd (BoNT/B1 [4]) was 0.0382 nM.

B9: B6.C12 Fab (Fab, V domains shown)
VH: QVQLVQSGAEVKKPGESLVISCKASGDKDTFTSFWIAWVRQMPGKGLEWMGIIYAGDSDTRYSPSFQGHVNISVDRSTNTAYLQWSSLKASDTAMYYCARHDSRYKYFYFGMDVWGQGTTVTVSS
VL: DIVMTQSPSSLSASVGDRVTITCRASQSISSYLNWYQQKPGKAPKLLIYAASSLQSGVPSRFSGSGSGTDFTLTISSLQPEAFATYYCQQSYTAPCTFGQGTKLEIK
B9 was tested, and the “KD wild type/KD matured” value (BoNT/B1 [5]) was 7 fold and the Kd (BoNT/B1 [6]) was 0.405 nM.

B10: B6.D2 Fab (Fab, V domains shown)
VH: B9 VH
VL: DVVMTQSPCLPCLHLIGDRVTITCRASQSIRDYLSWYQQEPGKAPKLLIYSASSLQSGVPSRFSGSGSGTDFTLTITNLQPEDFATYYCLEKYSFPRCTFGQGTKLDIKR
For B10, the “KD wild type/KD matured” value (BoNT/B1 [5]) was 11 fold and the Kd (BoNT/B1 [6]) was 0.254 nM.

B11: 2B30 scFv (scFv)
scFv: EVQLVESGGGVVQPGRSLRLSCAASGFTFRRNAIHWVRQAPGKGLEWVAVISYDGVNKYYAASVKGRFAISRDNAKNTLFLQMNSLRPEDSAIYYCARDVSEYGDYVGHFDYWGQGTLVTVSSGGGGSGGGGSGGGGSSYELMQLPSASGTPGQRVSISCSGSSSNIGSNPVNWYQQLPGTAPKLLIYSNNHRPSGVPDRFSGSKSGTSASLAISGLQSEDEADYYCAAWDGSLNGHVVFGGGTKLTVL
For B11, the Kd (BoNT/B1 [2]) was 0.37 nM.

B12: 2B23 scFv (scFv)
scFv: EVQLLESGGGLVQPGGSLRLSCAASGFTFSNYPMSWVRQAPGKGLAWVSSLTASGDNTFYADSVKGRFTISRDNSNNTLYLQMHSLRAEDTAVYYCAKALVGRYDISTGYYRPVMDSWGQGTLVTVSSGGGGSGGGGSGGGGSDIQMTQSPPSLSASVGDRVTITCRTSQGFTSALAWYQQKPGEPPKLLIYDASKLESGVPSRFSGSGSGTNFALTISSLQPEDFATYFCQQSNSYPLTFGGGTKVEIK
For B12, the Kd (BoNT/B1 [3]) was 0.079 nM and the Kd (BoNT/B1 [2]) was 0.08 nM.

B13: 1B22 IgG (antibody, V domains shown)
VH: QVQLQESGSRLVKPSQTLSLTCGVSGGSISSSSYSWSWIRQTPGKGLEWIGYIYHSGSTYYNPSLKSRVTMSVDKSRNQFSLNMSSVTAADTAVYYCARTAFYYENTGPIRCYLDFWGQGTLVTVSS
VL: DIQMTQSPSTLSASIGDRVTISCRASQSIQSWLAWYQQRPGEAPKLLIYSASTLQTGVPSRFSGSGSGTDFTLTISSLQPEDFATYYCQQYNSYPLTFGQGTKLEIK
For B13, the Kd (BoNT/B1 [4]) was 0.335 nM and the “fold increase in affinity, IgG against parental scFv” value (BoNT/B1 [7]) was 1.5 to 25 fold.

B14: 1B22 scFv (scFv)
scFv: QVQLQESGSRLVKPSQTLSLTCGVSGGSISSSSYSWSWIRQTPGKGLEWIGYIYHSGSTYYNPSLKSRVTMSVDKSRNQFSLNMSSVTAADTAVYYCARTAFYYENTGPIRCYLDFWGQGTLVTVSSGGGGSGGGGSGGGGSDIQMTQSPSTLSASIGDRVTISCRASQSIQSWLAWYQQRPGEAPKLLIYSASTLQTGVPSRFSGSGSGTDFTLTISSLQPEDFATYYCQQYNSYPLTFGQGTKLEIK
B14 showed a Kd (BoNT/B1 [3]) of 0.515 nM and a Kd (BoNT/B1 [2]) of 0.52 nM.

B15: 2B25 scFv (scFv)
scFv: QVQLQESGPGLVKPSQTLSLSCSVSGASITSGTFYWSWIRQHPGKDLEWIGYIYYSGTTYYNPSLKSRVTLSVDTSKNQFSLKVTSLTAADTAVYHCARGVPIYDSSGTYRGTYFDYWGQGTLVTVSSGGGGSGGGGSGGGGSQPGLTQPPSASGTPGQRVTISCSGSSSNVGSNTVNWYQQLPGTAPKLLIYRNDQRPSGVPDRFSGSKSGASASLAISGLRSEDEADYYCAAWDDSLNGLLFGGGTQLTVL
B15 showed a Kd (BoNT/B1 [2]) of 0.95 nM.
